No end group written: not given here. *: point of attachment. 125I = [125I]*

Data set [1] is described as follows: Effect of process parameters and excipients on rehydration time of lyophilized HEC gel. It counts as physicochemical. Further details: key: ✓: Additives that had a positive effect (i.e., reduction in hydration time) have a check mark beside them. Conditions: additive screening. On the procedure:
Preliminary studies on rehydration time used water (see Table 13). Rehydration in 12% hexylene glycol, a humectant, decreased the rehydration time for a HEC 250HX lyophilized cake down to 20-30 minutes. Further experiments used 12% hexylene glycol for rehydration.
The freezing rate for lyophilized products can affect the cake structure. Freezing at −20° C. was the standard procedure used in this study. To investigate the effect of a faster freezing rate, samples were frozen in a dry ice/ethanol bath at −48° C.
Samples from both freezing methods were lyophilized. During the lyophilization process, all samples from the ice bath freezing collapsed into dense cakes. During rehydration, the ice bath frozen cakes were much slower to form gels. It took at least 1 hour to rehydrate the ice bath frozen cakes.
HEC 250HX gels at 1.125 and 2.25% polymer were prepared. The latter gel was more viscous than the former due to the higher polymer concentration. After freeze drying, cakes from both products were rehydrated so that the final polymer concentration was 1.125%. The lyophilized gels prepared with the more concentrated polymer solution required approximately 15-20 minutes longer to rehydrate than the more dilute formulation. The higher density of the concentrated polymer cake was likely a factor in the longer rehydration time.
Additives with a wide range of physical properties were screened to evaluate their effect on rehydration time for a lyophilized 1.125% HEC 250HX gel. The chemical classes included in this screen were polymers, surfactants, amino acids, colloidal powders, and salts. All additives were crystalline at room temperature. The use of amorphous excipients could lead to melting/cake collapse at elevated temperature. When evaluating chemical classes, priority was given to those included in the IIG for topicals. Excipients shown to be physically and/or chemically incompatible with PTH(1-34) were excluded (4). Salts containing polyvalent anions were also excluded to avoid the potential for precipitating PTH(1-34).
“Powdered” solid formulations were also evaluated. […]

A short description of data set [2]: Percutaneous absorption of 125I macromolecules, in vitro cadaver skin finite dose technique. The format is in vitro ADME, human. To be noted: for Total Absorption / Dermis / Epidermis / Stratum Corneum / Surface Wash: 48 hours. An excerpt: Radiolabeled Bovine Serum Albumin was acquired from American Radiolabeled Chemicals (St. Louis, Mo.) as ARI 0112 Albumin (bovine serum) [I^125] with a specific activity of 204 Ci/mmol (Lot number 080372). Radiolabeled Epidermal Growth Factor (murine) and Somatastatin were acquired from Perkin Elmer Life and Analytical Sciences (Boston, Mass.) as [^125I]-Epidermal Growth Factor (murine) and [^125I]Tyr11-Somatostatin 14 with specific activities of 2200 Ci/mmol (Lot number CC41180) and 2200 Ci/mmol (Lot number JX32880), respectively. Each stock isotope was either provided as, or reconstituted into 12.5 μL of distilled de-ionized water. This volume was added to 500 μL of the provided test formulations and mixed for uniformity. Replicate assessments were made from each final mixture to determine specific activity.
Skin Preparation. Percutaneous absorption was measured using the in vitro cadaver skin finite dose technique. Ex vivo human trunk skin without obvious signs of skin disease, obtained within 24-48 hours of death, was used in this study. Skin was dermatomed, prepared for cryopreservation, sealed in a water impermeable plastic bag, and stored at <−70° C. until the day of the experiment. Prior to use, it was thawed in ˜37° C. water, then rinsed in water to remove any adherent blood or other material from the surface.
Skin from a single donor was cut into multiple smaller sections large enough to fit on static 1.0 cm^2 Franz diffusion cells (see FIG. 6). The dermal chamber was filled to capacity with a reservoir solution of phosphate-buffered isotonic saline (PBS), pH 7.4±0.1, and the epidermal cell (chimney) left open to ambient laboratory conditions. All cells were mounted in a diffusion apparatus in which the dermal bathing solution was stirred magnetically at approximately 600 RPM and the skin surface temperature maintained at 32.0° C.±1.0° C.
To assure the integrity of each skin section, its permeability to tritiated water was determined before application of the test products. Following a brief (0.5-1 hour) equilibrium period, ^3H2O (NEN, Boston, Mass., sp. Act. ˜0.5 μCi/mL) was layered across the top of the skin by dropper so that the entire exposed surface was covered (approximately 250-500 μL). After 5 minutes the ^3H2O aqueous layer was removed. At 30 minutes the receptor solution was collected and analyzed for radioactive content by liquid scintillation counting. Skin specimens in which absorption of ^3H2O was less than 1.56 μL-equ/cm^2 were considered acceptable.
Dosing and Sample Collection. Just prior to dosing, the reservoir solution was replaced with a fresh solution of 1× PBS and a pre-dose sample taken for analysis. The chimney was removed from the Franz Cell to allow full access to the epidermal surface of the skin. All formulations were then applied to the skin sections using a positive displacement pipette set to deliver 5 μL formulation/cm^2. The dose was spread across the surface with the Teflon® tip of the pipette. Five to ten minutes after application, the chimney portion of the Franz Cell was replaced. At pre-selected times after dosing (1, 2, 4, 8, 12, 24, 32, and 48 hours) the reservoir solution was removed in its entirety, replaced with fresh reservoir solution, and a predetermined volume aliquot saved for subsequent analysis.
After the last sample was collected, the surfaces were washed twice (0.5 mL volume each) with 1× PBS to collect un-absorbed formulation from the surface of the skin. Following the wash, the skin was tape stripped a sufficient number of times to collect the stratum corneum. The skin was then removed from the chamber and split into epidermis and dermis. All skin sections were dissolved overnight in Soluene-350® (Perkin Elmer).
Analytical Methods. Analysis of all formulations was by liquid scintillation counting. One-milliliter volumes of each receptor solution and each surface wash received 5-6 mL scintillation fluid or as needed. […]

The format of data set [3] is physicochemical. On the procedure: All excipients for the room temperature gel formulations met USP/NF monographs. Reagents for analysis were HPLC and/or ACS grade and nitrogen was ultra high purity (>99.999%). PTH(1-34) was supplied by Neo-MPS. Reverse phase HPLC RP-HPLC analysis of reconstituted gels/solutions was performed according to standard methods.
At each time point, two assays were performed on each formulation.
Before preparing larger batches for longer term stability studies, three pilot batches were prepared on the 10 g scale to assess the solid product's stability. The batches included either PTH(1-34) plus HEC, PTH(1-34) plus HEC in 1.0% mannitol and PTH(1-34) plus HEC in 1.0% lactose. The lyophilized gels were prepared according to the method of Example 8. Stability was assayed according to by HPLC.
The PTH(1-34) formulations that included HEC in 1.0% mannitol and HEC alone were prepared on a larger scale for use in a long-term stability analysis. In addition to these two lyophilized gel formulations, neat PTH(1-34), i.e., PTH powder, was also filled into vials (purged with nitrogen).
PTH was assayed by HPLC analysis of reconstituted gels/solutions. The samples were assayed before storage, stored at 40° C. and assayed at 1, 3, and 6 months after storage. At each time point, 2 assays were performed on each formulation. […]

Where [4] appears, read: 0.5 hr (midpoint), Mean ± SE, n = 3 Donors.
[5] abbreviates: 28.0 hr (midpoint), Mean ± SE, zeros below LLOQ.
[6] abbreviates: percent of applied dose, Mean ± SE.

For `[Cl-].[K+]` [Potassium Chloride], the “effect of additive on hydration time of lyophilized 1.125% HEC 250 HX gel” value (“effect … of lyophilized 1.125% HEC 250 HX gel” for short) in data set [1] was “Potassium Chloride✓”.

For `[Cl-].[Na+]` [Sodium Chloride], the “effect … of lyophilized 1.125% HEC 250 HX gel” value in data set [1] is listed as “Sodium Chloride✓”.

Turning to `CC(O)C(=O)[O-].[Na+]` (centres unmarked) [Sodium Lactate], the “effect … of lyophilized 1.125% HEC 250 HX gel” value in data set [1] is given as “Sodium Lactate✓”.

As to “Bovine Serum Albumin: [125I] bovine serum albumin in HEC gel, 1.0 mg/mL”, the “Mean Flux” value in data set [2] (setting [4]) came to 4.69 ± 3.93 ng/cm^2/hr; in data set [2] (1.5 hr (midpoint), Mean ± SE) it was 1.04 ± 1.04 ng/cm^2/hr; in data set [2] (3.0 hr (midpoint), Mean ± SE), 0.71 ± 0.43 ng/cm^2/hr; in data set [2] (6.0 hr (midpoint), Mean ± SE), 0.26 ± 0.12 ng/cm^2/hr; in data set [2] (10.0 hr (midpoint), Mean ± SE), 0.05 ± 0.05 ng/cm^2/hr; in data set [2] (18.0 hr (midpoint), Mean ± SE) it was 0.04 ± 0.04 ng/cm^2/hr. For the same compound, the “Mean Flux” value is recorded as 0.02 ± 0.02 ng/cm^2/hr in data set [2] (setting [5]) and 0.06 ± 0.03 ng/cm^2/hr in data set [2] (40.0 hr (midpoint), Mean ± SE). Further, the “Total Absorption” value turned out to be 0.010 ± 0.007 µg in data set [2] (single application, Mean ± SE) and 0.205 ± 0.148% in data set [2] (setting [6]). The Dermis turned out to be 0.079 ± 0.024 µg in data set [2] (Mean ± SE) and 1.607 ± 0.487% in data set [2] (percent of applied dose). Besides, the Epidermis in data set [2] (Mean ± SE) is 0.423 ± 0.060 µg; in data set [2] (percent of applied dose), 8.610 ± 1.230%. The figures for the “Stratum Corneum” value in data set [2] (Mean ± SE) and in data set [2] (percent of applied dose) were 0.616 ± 0.157 µg and 12.552 ± 3.202%, respectively. The “Surface Wash” value is 3.788 ± 0.357 µg in data set [2] (Mean ± SE) and 77.182 ± 7.273% in data set [2] (percent of applied dose).

Take “Epidermal Growth Factor: [125I]-Epidermal Growth Factor (murine) in HEC gel, 0.1 mg/mL”: the “Mean Flux” value was 0.40 ± 0.21 ng/cm^2/hr in data set [2] (setting [4]); 0.11 ± 0.08 ng/cm^2/hr in data set [2] (1.5 hr (midpoint), Mean ± SE); 0.07 ± 0.06 ng/cm^2/hr in data set [2] (3.0 hr (midpoint), Mean ± SE); 0.04 ± 0.02 ng/cm^2/hr in data set [2] (6.0 hr (midpoint), Mean ± SE); 0.09 ± 0.06 ng/cm^2/hr in data set [2] (10.0 hr (midpoint), Mean ± SE); 0.01 ± 0.01 ng/cm^2/hr in data set [2] (18.0 hr (midpoint), Mean ± SE). The “Mean Flux” value in data set [2] (setting [5]) is recorded as 0.00 ± 0.00 ng/cm^2/hr; in data set [2] (40.0 hr (midpoint), Mean ± SE), 0.01 ± 0.00 ng/cm^2/hr. Also, the “Total Absorption” value in data set [2] (single application, Mean ± SE) was determined as 0.001 ± 0.000 µg; in data set [2] (setting [6]) it was 0.278 ± 0.095%. In addition, the results for the Dermis in data set [2] (Mean ± SE) and in data set [2] (percent of applied dose) were 0.008 ± 0.002 µg and 1.629 ± 10.311%, respectively. In addition, the Epidermis in data set [2] (Mean ± SE) stood at 0.013 ± 0.001 µg; in data set [2] (percent of applied dose) it was 2.646 ± 0.242%. In addition, the “Stratum Corneum” value in data set [2] (Mean ± SE) turned out to be 0.014 ± 0.001 µg; in data set [2] (percent of applied dose) it was 2.773 ± 0.131%. Also, the “Surface Wash” value in data set [2] (Mean ± SE) was 0.479 ± 0.005 µg; in data set [2] (percent of applied dose) it was 98.145 ± 1.046%.

“Somatostatin: [125I]Tyr11-Somatostatin 14 in HEC gel, 1.0 mg/mL (AGCKNFFWKTY(125I)TSC; ends and bridges not checked; UniProt P61278 103-116, looked up, variant F11Y)”: the “Mean Flux” value in data set [2] (setting [4]) amounted to 8.09 ± 3.68 ng/cm^2/hr; in data set [2] (1.5 hr (midpoint), Mean ± SE) it was 2.14 ± 1.89 ng/cm^2/hr; in data set [2] (3.0 hr (midpoint), Mean ± SE) it was 0.54 ± 1.89 ng/cm^2/hr; in data set [2] (6.0 hr (midpoint), Mean ± SE), 0.22 ± 0.20 ng/cm^2/hr; in data set [2] (10.0 hr (midpoint), Mean ± SE), 0.11 ± 0.05 ng/cm^2/hr; in data set [2] (18.0 hr (midpoint), Mean ± SE), 0.02 ± 0.02 ng/cm^2/hr. Further, the “Mean Flux” value came to 0.00 ± 0.00 ng/cm^2/hr in data set [2] (setting [5]) and 0.01 ± 0.00 ng/cm^2/hr in data set [2] (40.0 hr (midpoint), Mean ± SE). Moreover, the “Total Absorption” value in data set [2] (single application, Mean ± SE) was 0.013 ± 0.007 µg; in data set [2] (setting [6]), 0.234 ± 0.149%. The figures for the Dermis in data set [2] (Mean ± SE) and in data set [2] (percent of applied dose) were 0.118 ± 0.008 µg and 2.410 ± 0.169%, respectively. In addition, the Epidermis in data set [2] (Mean ± SE) was found to be 0.180 ± 0.010 µg; in data set [2] (percent of applied dose), 3.697 ± 0.200%. In addition, the “Stratum Corneum” value in data set [2] (Mean ± SE) amounted to 0.190 ± 0.009 µg; in data set [2] (percent of applied dose) it was 3.886 ± 0.180%. Moreover, the entries for the “Surface Wash” value in data set [2] (Mean ± SE) and in data set [2] (percent of applied dose) were 4.561 ± 0.118 µg and 93.493 ± 2.412%, respectively.

Take “XF15//339006-2: Neat PTH(1-34) from Neo-MPS, lyophilized powder, vials purged with nitrogen”: in data set [3], the “degradation (in words)” value is given as “significant degradation”. The “reduction of PTH(1-34) assay” value in data set [3] (six months of storage at 40° C.) is approximately 25%.

The values are drawn from patent US20080299228A1, “TOPICAL COMPOSITIONS COMPRISING A MACROMOLECULE AND METHODS OF USING SAME” (priority 2007, published 2008).
